Experimental data taken from the RNAGym collection of RNA variant scans (doi:10.7554/elife.80360).

B1: Hairpin Ribozyme (parent)
chain: GUCCUCUUUCACGUGCGCGUGAAAGAGAGAAGUGAACCAGAGAAACACACGUUGUGGUAUAUUACCUGGUA

Variants of: B1
Assay: self-cleavage, relative activity (ratio to wild type); higher = more cleavage; co-transcriptional
GUCCUCUGUCACGUGCGCGUGAAAGAGAGAAGUGAACCAGAGAAACACACGUUGUGGUCUAUUACCUGGUA [U8G A59C] gave a self-cleavage of 0.136.
Variant GUCCUCUGUCACCUGCGCGUGAAAGAGAGAAGUGAACCAGAGAAACACACGUUGUGGUAUAUUACCUGGUA [U8G G13C] has a self-cleavage of 0.519.
With GUCCUCUGUCACAUGCGCGUGAAAGAGAGAAGUGAACCAGAGAAACACACGUUGUGGUAUAUUACCUGGUA [U8G G13A] the self-cleavage was 0.618.
For GUCCUCUGUCACGUGCGCGUGAAAGAGAGAAGUGAACCAGAGAAACACCCGUUGUGGUAUAUUACCUGGUA [U8G A49C], the self-cleavage was 0.108.
GUCCUCUGUCACGUGCGCGUGAAAGAGAGAAGUGAACCAGAGAAACACAAGUUGUGGUAUAUUACCUGGUA [U8G C50A] showed a self-cleavage of 0.227.
Variant GUCCUCUGUCACGUGCGCGUGAAAGAGAGAAGUGAACCAGAGAAACACAGGUUGUGGUAUAUUACCUGGUA [U8G C50G] has a self-cleavage of 0.125.
GUCCUCUGUCACGUGCGCGUGAAAGAGAGAAGUGAACCAGAGAAACACACGUUGUGGUAUAUUACCUGGUG [U8G A71G] showed a self-cleavage of 0.993.
In the case of GUCCUCUGUCACGUGCGCGUGAAAGAGAGAAGUGAACCAGAGAAACACACGUUGUGGUAUAUUACCUGGUU [U8G A71U], the self-cleavage is reported as 0.588.
Variant GUCCUCUGUCACGUUCGCGUGAAAGAGAGAAGUGAACCAGAGAAACACACGUUGUGGUAUAUUACCUGGUA [U8G G15U] has a self-cleavage of 0.656.
For GUCCUCUGUCACGUGCGCGUGAAAGAGAGAAGUGAAACAGAGAAACACACGUUGUGGUAUAUUACCUGGUA [U8G C37A], the self-cleavage was 0.218.
Variant GUCCUCUGUCACGUGCGCGUGAAAGAGAGAAGUGUACCAGAGAAACACACGUUGUGGUAUAUUACCUGGUA [U8G A35U] has a self-cleavage of 0.673.
With GUCCUCUGUCACGUGCGCGUGAAAGAGAGUAGUGAACCAGAGAAACACACGUUGUGGUAUAUUACCUGGUA [U8G A30U] the self-cleavage was 0.186.
GUCCUCUCUCACGUGCGCGUGAAAGAGAGAAGUGAACCAGAGAAACACACGUUGUGGUAUAUUACCAGGUA [U8C U67A] gave a self-cleavage of 0.161.
Work on GUCCUCUGUCACGUGCGCUUGAAAGAGAGAAGUGAACCAGAGAAACACACGUUGUGGUAUAUUACCUGGUA [U8G G19U] yielded a self-cleavage of 0.332.
Work on GUCCUCUGUCACGUGCGCAUGAAAGAGAGAAGUGAACCAGAGAAACACACGUUGUGGUAUAUUACCUGGUA [U8G G19A] yielded a self-cleavage of 0.533.
GUCCUCUCUCACGUGCGCGUGAAAGAGAGAAGUGAACCAGAGAAACACACGUUGUGGUAUAUCACCUGGUA [U8C U63C] gave a self-cleavage of 0.132.
In the case of GUCCUCUCUCACGUGCGCGUGAAAGAGAGAAGUGAACCAGAGAAACACACGUUGUGGUAUAUUACCUGGCA [U8C U70C], the self-cleavage is reported as 0.651.
For GUCCUCUCUCACGUGCGCGUGAAAGAGAGAAGUGAACCAGAGAAACACACGUUGUGGUAUAUUACCUGGAA [U8C U70A], the self-cleavage was 0.631.
In the case of GUCCUCUGUCACGUGCGCGUGAUAGAGAGAAGUGAACCAGAGAAACACACGUUGUGGUAUAUUACCUGGUA [U8G A23U], the self-cleavage is reported as 0.738.
In the case of GUCCUCUGUCACGUGCGCGUGAAAGAGAGAAGUGAACCAGAGAAACGCACGUUGUGGUAUAUUACCUGGUA [U8G A47G], the self-cleavage is reported as 0.0909.
In the case of GUCCUCUGUCACGUGCGCGUGAAAGAGAGACGUGAACCAGAGAAACACACGUUGUGGUAUAUUACCUGGUA [U8G A31C], the self-cleavage is reported as 0.13.
Variant GUCCUCUGUCAGGUGCGCGUGAAAGAGAGAAGUGAACCAGAGAAACACACGUUGUGGUAUAUUACCUGGUA [U8G C12G] has a self-cleavage of 0.146.
For GUCCUCUGUCACGUGCGCGUGAAAGAGAGAAGUGAACCAGCGAAACACACGUUGUGGUAUAUUACCUGGUA [U8G A41C], the self-cleavage was 0.801.
With GUCCUCUGUCACGUGCGCGUGAAAGAGAGAAGUGAACCUGAGAAACACACGUUGUGGUAUAUUACCUGGUA [U8G A39U] the self-cleavage was 0.288.
Variant GUCCUCUGUCACGUGCGCGUGAAAGAGAGAAGUGAACCCGAGAAACACACGUUGUGGUAUAUUACCUGGUA [U8G A39C] has a self-cleavage of 0.406.
GUCCUCUGUCACGUGCGCGUGAAAGAGAGAAGUGAGCCAGAGAAACACACGUUGUGGUAUAUUACCUGGUA [U8G A36G] gave a self-cleavage of 0.76.
Variant GUCCUCUCUCACGUGCGCGUGAAAGAGAGAAGUGAACCAGAGAAACACACGUUGUGGUAUAGUACCUGGUA [U8C U62G] has a self-cleavage of 0.144.
For GUCCUCUCUCACGUGCGCGUGAAAGAGAGAAGUGAACCAGAGAAACACACGUUGUGGUAUAAUACCUGGUA [U8C U62A], the self-cleavage was 0.192.
GUCCUCUCUCACGUGCGCGUGAAAGAGAGAAGUGAACCAGAGAAACACACGUUGUGGUAUACUACCUGGUA [U8C U62C] showed a self-cleavage of 0.201.
GUCCUCUGUCACGUGCGCGUGAAAGAGAGAAGUGAACCAGAGAAACACACGUUGUGGUAUAUUAGCUGGUA [U8G C65G] showed a self-cleavage of 0.275.
Variant GUCCUCUGUCACGUGCACGUGAAAGAGAGAAGUGAACCAGAGAAACACACGUUGUGGUAUAUUACCUGGUA [U8G G17A] has a self-cleavage of 0.648.
GUCCUCUGUCACGUGCGCGUGAAAGAGAGAAGUGAACCAGAGAAUCACACGUUGUGGUAUAUUACCUGGUA [U8G A45U] gave a self-cleavage of 0.118.
Work on GUCCUCUGUCACGUGCGCGUGCAAGAGAGAAGUGAACCAGAGAAACACACGUUGUGGUAUAUUACCUGGUA [U8G A22C] yielded a self-cleavage of 0.556.
GUCCUCUGUUACGUGCGCGUGAAAGAGAGAAGUGAACCAGAGAAACACACGUUGUGGUAUAUUACCUGGUA [U8G C10U] showed a self-cleavage of 0.654.
GUCCUCUGUAACGUGCGCGUGAAAGAGAGAAGUGAACCAGAGAAACACACGUUGUGGUAUAUUACCUGGUA [U8G C10A] showed a self-cleavage of 0.725.
Variant GUCCUCUGUCUCGUGCGCGUGAAAGAGAGAAGUGAACCAGAGAAACACACGUUGUGGUAUAUUACCUGGUA [U8G A11U] has a self-cleavage of 0.67.
GUCCUCUGUCCCGUGCGCGUGAAAGAGAGAAGUGAACCAGAGAAACACACGUUGUGGUAUAUUACCUGGUA [U8G A11C] showed a self-cleavage of 0.512.
Work on GUCCUCUGUCACGUGCGCGUGAAAUAGAGAAGUGAACCAGAGAAACACACGUUGUGGUAUAUUACCUGGUA [U8G G25U] yielded a self-cleavage of 0.2.
